The target of assay [1] is Trastuzumab. The assay can be described thus: frontal analysis on a membrane disc, load at 10 mL/min, run 4 (no blank run before).
In assay [2] the target is dAb, a domain antibody comprising the variable light chain. The assay can be described thus: frontal analysis on a membrane disc, run 1.
Assay [3] concerns the target Trastuzumab. The assay can be described thus: frontal analysis on a membrane disc, load at 10 mL/min, run 3.
For assay [4], the target named is Trastuzumab. The assay can be described thus: frontal analysis on a membrane disc, load at 10 mL/min, run 1.
For assay [5], the target named is Trastuzumab. The assay can be described thus: frontal analysis on a membrane disc, blank run between runs, run 1.
For assay [6], the target named is Trastuzumab. The assay can be described thus: frontal analysis on a membrane disc, blank run between runs, run 2.
Assay [7] deals with Trastuzumab. The assay can be described thus: frontal analysis on a membrane disc, load at 10 mL/min, average of runs 1-4.
Assay [8] deals with Trastuzumab. The assay can be described thus: frontal analysis on a membrane disc, blank run between runs, average.
Assay [9] concerns the target Trastuzumab. The assay can be described thus: frontal analysis on a membrane disc, load at 10 mL/min, run 2 (no blank run before).
In assay [10] the target is dAb, a domain antibody comprising the variable light chain. The assay can be described thus: frontal analysis on a membrane disc, re-run after CIP with 0.1 M NaOH, average. Conditions: test 1, without preceding CIP wash.
Assay [11] has the same target. The assay can be described thus: frontal analysis on a membrane disc, run 2, average of Test 1 and Test 2.
Assay [12] has the same target. The assay can be described thus: frontal analysis on a membrane disc, run 1, average of Test 1 and Test 2.
The target is the same in assay [13]. The assay can be described thus: frontal analysis on a membrane disc, run 2.

Several values for one entry are separate records, joined by “and”; a condition that tells them apart may be missing. Equal entries are not always repeated.

One substance from patent publication US20260258092A1 can be followed below.

With “kappa light chain-binding ligand (multimer of alkali-stabilized Finegoldia magna Protein L domains) covalently coupled to a convection-based fibrous support (prototype separation matrix) (designed binder)”, the Qb10% (dynamic binding capacity at 10% breakthrough) in the assay with Trastuzumab [1] was 10.8 mg/mL and 16.8 mg/mL; in assay [2], 12.8 mg/mL and 13 mg/mL; with Trastuzumab [3], 15.9 mg/mL and 21.8 mg/mL; in the assay with Trastuzumab [4] it was 17.3 mg/mL and 22 mg/mL; in the assay with Trastuzumab [5], 15.4 mg/mL and 21.4 mg/mL; with Trastuzumab [6], 15.5 mg/mL and 21.4 mg/mL. Further, the Qb10% (dynamic binding capacity at 10% breakthrough) with Trastuzumab [9] is 12.3 mg/mL and 17.8 mg/mL; in assay [13], 9.41 mg/mL and 10.5 mg/mL. Moreover, the Qb10% (average of runs) with Trastuzumab [7] is 19.6 mg/mL and 14.1 mg/mL; with Trastuzumab [8], 15.4 mg/mL and 21.4 mg/mL; in [10] it was 10.2 mg/mL. Further, the Average of Qb10% was 9.98 mg/mL in [11] and 12.9 mg/mL in assay [12].
